{
  "source": "the RNAGym collection of RNA variant scans (doi:10.1073/pnas.2313332121)",
  "parents": {"B1": {"name": "TPR t1 (parent)", "chain": "GACCAAUCUGCCCUCAGAGCUCGAGAACAUCUUCGGAUGCAGAGGAGGCAGGCUUCGGUGGCGCGAUAGCGCCAACGUCCUCAACCUCCAAUGCAUCCCACCACAUGAUGAUGCCUGAAGAGCCUUGGUUUUUUG"}},
  "data": [
    {"variants_of": "B1", "assay": "polymerase ribozyme fitness, log enrichment relative to wild type (log ratio); higher = more active; in vitro selection for triplet polymerase activity", "outline": "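A single round of triplicate in vitro selection, including frozen incubation at −7 °C, was applied to PCR-built, transcribed mutant libraries of each subunit of a heterodimeric triplet polymerase ribozyme. Illumina sequencing of input and output libraries retained genotypes with ≥10 input reads and ≥1 read per output. Fitness is the base-2 logarithm of genotype enrichment divided by wild-type enrichment, from inverse-variance-weighted replicate averages.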", "values": [
      {"variant": "C28A C124U", "polymerase ribozyme fitness (log ratio)": -2.12},
      {"variant": "G10C A66C C79U", "polymerase ribozyme fitness (log ratio)": -2.72},
      {"variant": "A27G A121G", "polymerase ribozyme fitness (log ratio)": 1.32},
      {"variant": "C8U C13G C102A G122A C123G", "polymerase ribozyme fitness (log ratio)": -0.13},
      {"variant": "C49A G71A C82A G120U", "polymerase ribozyme fitness (log ratio)": -2.99},
      {"variant": "A27G G51U G61A G127C", "polymerase ribozyme fitness (log ratio)": -6.98},
      {"variant": "C15G C104U U132A", "polymerase ribozyme fitness (log ratio)": -1.67},
      {"variant": "G17A G120C G127U", "polymerase ribozyme fitness (log ratio)": -1.24},
      {"variant": "C15A C98U", "polymerase ribozyme fitness (log ratio)": -3.62},
      {"variant": "C70G G122U", "polymerase ribozyme fitness (log ratio)": -2.27},
      {"variant": "U9C G60U C82U U96C", "polymerase ribozyme fitness (log ratio)": 0.305},
      {"variant": "C40U G45A", "polymerase ribozyme fitness (log ratio)": -1.41},
      {"variant": "G63A U78C G93A G122A", "polymerase ribozyme fitness (log ratio)": -2.28},
      {"variant": "A46U G120A", "polymerase ribozyme fitness (log ratio)": -0.14},
      {"variant": "A26G G60C C82A", "polymerase ribozyme fitness (log ratio)": -2.8},
      {"variant": "G19A U87G U109G", "polymerase ribozyme fitness (log ratio)": -4.8},
      {"variant": "C8G C15U C62U G135U", "polymerase ribozyme fitness (log ratio)": -1.08},
      {"variant": "A66G A83C C89U A95C", "polymerase ribozyme fitness (log ratio)": -2.97},
      {"variant": "G10A C62U G69A A121U G127U", "polymerase ribozyme fitness (log ratio)": -1.42},
      {"variant": "C31A C72U", "polymerase ribozyme fitness (log ratio)": -5.82},
      {"variant": "G39U C53G", "polymerase ribozyme fitness (log ratio)": 0.711},
      {"variant": "G35A G113C", "polymerase ribozyme fitness (log ratio)": -5.03},
      {"variant": "C85U A111U G122U", "polymerase ribozyme fitness (log ratio)": -4.09},
      {"variant": "G17C C62U", "polymerase ribozyme fitness (log ratio)": -4.67},
      {"variant": "C124U U133G", "polymerase ribozyme fitness (log ratio)": 0.97},
      {"variant": "C34A G93A", "polymerase ribozyme fitness (log ratio)": -2.95},
      {"variant": "C53G G63A C115G U116A U131G", "polymerase ribozyme fitness (log ratio)": -7.22},
      {"variant": "U9A C12A C13A A18G A100U", "polymerase ribozyme fitness (log ratio)": -6.25},
      {"variant": "U106A U126C", "polymerase ribozyme fitness (log ratio)": -0.645},
      {"variant": "A111G U133G", "polymerase ribozyme fitness (log ratio)": -0.431},
      {"variant": "A6U C99U C115U", "polymerase ribozyme fitness (log ratio)": -7.34},
      {"variant": "C4U C88A", "polymerase ribozyme fitness (log ratio)": -0.437},
      {"variant": "C13A G60A C102U A118C G120U", "polymerase ribozyme fitness (log ratio)": -2.89},
      {"variant": "A18G G19U A46G U59A C79A", "polymerase ribozyme fitness (log ratio)": -4.25},
      {"variant": "C8G C34A C40U U55A G69U C79U C98U G107U A111U G117C", "polymerase ribozyme fitness (log ratio)": -6.38},
      {"variant": "C70A C85U", "polymerase ribozyme fitness (log ratio)": -2.32},
      {"variant": "C15A G36U A121G", "polymerase ribozyme fitness (log ratio)": 0.928},
      {"variant": "A2U G52U", "polymerase ribozyme fitness (log ratio)": -3.41},
      {"variant": "C49U G52A C56G", "polymerase ribozyme fitness (log ratio)": -2.31},
      {"variant": "U59G U96A G128A", "polymerase ribozyme fitness (log ratio)": -2.77},
      {"variant": "C22U A100C", "polymerase ribozyme fitness (log ratio)": -4.93},
      {"variant": "A6C C70A C73U", "polymerase ribozyme fitness (log ratio)": -2.44},
      {"variant": "A16U U81A", "polymerase ribozyme fitness (log ratio)": -2.6},
      {"variant": "C49A A90U A111C G113A G122C", "polymerase ribozyme fitness (log ratio)": -3.8},
      {"variant": "G47A U96A", "polymerase ribozyme fitness (log ratio)": -1.93},
      {"variant": "C12A C53U U106G G113C G127C", "polymerase ribozyme fitness (log ratio)": -5.83},
      {"variant": "G71U C94A", "polymerase ribozyme fitness (log ratio)": -1.14},
      {"variant": "A41G C79G", "polymerase ribozyme fitness (log ratio)": -4.32},
      {"variant": "C12G A43U C70A C79U C82A U96A", "polymerase ribozyme fitness (log ratio)": -5.11},
      {"variant": "C53A C56U U78C A118U G120C", "polymerase ribozyme fitness (log ratio)": 0.115},
      {"variant": "C8A U109A", "polymerase ribozyme fitness (log ratio)": -4.14},
      {"variant": "G39U C73A", "polymerase ribozyme fitness (log ratio)": -0.759},
      {"variant": "C28G A37C A91C", "polymerase ribozyme fitness (log ratio)": -6.42},
      {"variant": "G17U G71A A84U U96G G128U U130C", "polymerase ribozyme fitness (log ratio)": -5.57},
      {"variant": "A16U C56U", "polymerase ribozyme fitness (log ratio)": -1.86},
      {"variant": "A26U G52U C56U", "polymerase ribozyme fitness (log ratio)": -3.49},
      {"variant": "A43C G47U C53U C88G C104U", "polymerase ribozyme fitness (log ratio)": -6.05},
      {"variant": "G35U U78A C86U G93A G122A C123A", "polymerase ribozyme fitness (log ratio)": -6.42},
      {"variant": "A6G G71A C82A A111U", "polymerase ribozyme fitness (log ratio)": -4.56},
      {"variant": "G42A G117C A119U", "polymerase ribozyme fitness (log ratio)": -3.55},
      {"variant": "A29G A37U C89U C94U C123A U126A", "polymerase ribozyme fitness (log ratio)": -3.13},
      {"variant": "C12G C89U C97A G113C", "polymerase ribozyme fitness (log ratio)": -6.48},
      {"variant": "G61A C79U", "polymerase ribozyme fitness (log ratio)": -0.164},
      {"variant": "G44A C72G U96G", "polymerase ribozyme fitness (log ratio)": -2.52},
      {"variant": "C64U A111C U112C", "polymerase ribozyme fitness (log ratio)": -0.987},
      {"variant": "G69A G127A", "polymerase ribozyme fitness (log ratio)": -4.05},
      {"variant": "C49U A74C G122A", "polymerase ribozyme fitness (log ratio)": -1.62},
      {"variant": "U81C C88A C123G G135U", "polymerase ribozyme fitness (log ratio)": 1.08},
      {"variant": "C72A A111C C124A G127A", "polymerase ribozyme fitness (log ratio)": 0.235},
      {"variant": "C72G U112G", "polymerase ribozyme fitness (log ratio)": -0.196},
      {"variant": "C53A C89U U106C", "polymerase ribozyme fitness (log ratio)": -0.0062},
      {"variant": "U78C G93A", "polymerase ribozyme fitness (log ratio)": -0.707},
      {"variant": "G39A G69A", "polymerase ribozyme fitness (log ratio)": -3.04},
      {"variant": "U30C C124U", "polymerase ribozyme fitness (log ratio)": -1.4},
      {"variant": "C28A G63C", "polymerase ribozyme fitness (log ratio)": -4.91},
      {"variant": "U32C G57U G110A", "polymerase ribozyme fitness (log ratio)": -2},
      {"variant": "C40U G45A U78G U81A", "polymerase ribozyme fitness (log ratio)": -2.5},
      {"variant": "G36C C40A C101A C104U A121U", "polymerase ribozyme fitness (log ratio)": -1.4},
      {"variant": "G63C C82G A121C G128C", "polymerase ribozyme fitness (log ratio)": -1.24},
      {"variant": "C94A A121C G122U U129A", "polymerase ribozyme fitness (log ratio)": -2.35},
      {"variant": "U9A C12A C88U G127A", "polymerase ribozyme fitness (log ratio)": -2.52},
      {"variant": "G69C C115G", "polymerase ribozyme fitness (log ratio)": -3.08},
      {"variant": "G10U C56G A111C", "polymerase ribozyme fitness (log ratio)": -0.962},
      {"variant": "C3A A16C U78G C79U", "polymerase ribozyme fitness (log ratio)": -4.42}
    ]}
  ]
}
